Experimental findings from article PMC10786891, “Massively parallel profiling of RNA-targeting CRISPR-Cas13d” are described below.

Changes are numbered by the printed parent chain. In names and notes the source's numbering stands.

T1: EsCas13d, nuclease-dead (Eubacterium siraeum, UniProt B0MS50, R295A;H300A;R849A;H854A)
T1 sequence: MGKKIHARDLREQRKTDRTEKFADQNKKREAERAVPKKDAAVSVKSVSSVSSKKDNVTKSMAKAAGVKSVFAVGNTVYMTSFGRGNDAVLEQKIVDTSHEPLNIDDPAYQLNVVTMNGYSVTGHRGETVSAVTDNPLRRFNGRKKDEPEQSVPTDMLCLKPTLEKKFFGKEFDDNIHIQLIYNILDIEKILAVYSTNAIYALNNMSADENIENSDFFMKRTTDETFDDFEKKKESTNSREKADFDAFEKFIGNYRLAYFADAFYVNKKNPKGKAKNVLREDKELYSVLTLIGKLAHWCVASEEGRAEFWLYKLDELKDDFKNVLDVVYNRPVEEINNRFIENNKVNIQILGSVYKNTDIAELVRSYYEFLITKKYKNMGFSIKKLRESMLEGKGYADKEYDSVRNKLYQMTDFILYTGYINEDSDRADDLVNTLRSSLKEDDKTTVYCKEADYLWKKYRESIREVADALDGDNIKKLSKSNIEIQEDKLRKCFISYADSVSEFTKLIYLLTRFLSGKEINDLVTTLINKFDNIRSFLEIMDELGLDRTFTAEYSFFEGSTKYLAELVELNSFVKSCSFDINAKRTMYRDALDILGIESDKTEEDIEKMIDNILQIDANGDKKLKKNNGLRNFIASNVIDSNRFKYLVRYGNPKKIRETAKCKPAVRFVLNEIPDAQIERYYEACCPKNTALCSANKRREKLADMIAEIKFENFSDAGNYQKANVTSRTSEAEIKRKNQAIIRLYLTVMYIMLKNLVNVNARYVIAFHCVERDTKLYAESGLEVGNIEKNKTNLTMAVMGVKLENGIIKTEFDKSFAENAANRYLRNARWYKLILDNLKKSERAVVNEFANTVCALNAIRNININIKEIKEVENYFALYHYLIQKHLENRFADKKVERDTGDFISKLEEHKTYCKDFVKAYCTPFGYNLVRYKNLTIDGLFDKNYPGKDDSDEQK

B1: target 1 MT 5'PFS GCC 3'PFS CUU (mixed)
RNA 1: CACCCGUGCAAAAAUGCAGGGGUCUAAAACUGAGCGGAUAACCUCUCUAUGG
RNA 2: GGGAAUGGAUCCACAUCUACGAAUUCGCCCCAUAGAGAGGUUAUCCGCUCACUUAGAUCGGAAGAGCACACGU
B2: target 1 MT 5'PFS UAA 3'PFS UGC (mixed)
RNA 1: B1 RNA 1
RNA 2: B1 RNA 2 with G27U, C28A, C29A, C52U, U53G, U54C
B3: target 1 MT 5'PFS AAC 3'PFS UAU (mixed)
RNA 1: B1 RNA 1
RNA 2: B1 RNA 2 with G27A, C28A, C52U, U53A
B4: target 1 MT 5'PFS GUG 3'PFS CGA (mixed)
RNA 1: B1 RNA 1
RNA 2: B1 RNA 2 with C28U, C29G, U53G, U54A
B5: target 1 MT 5'PFS GCC 3'PFS CUA (mixed)
RNA 1: B1 RNA 1
RNA 2: B1 RNA 2 with U54A
B6: target 1 MT 5'PFS UAU 3'PFS CUU (mixed)
RNA 1: B1 RNA 1
RNA 2: B1 RNA 2 with G27U, C28A, C29U
B7: target 1 insC 3' of 12,insC 3' of 9 (mixed)
RNA 1: B1 RNA 1
RNA 2: GGGAAUGGAUCCACAUCUACGAAUUCGUACCAUAGAGAGGCUUACUCCGCUCACCGAGAUCGGAAGAGCACACGU
B8: target 1 MT 5'PFS GCC 3'PFS CUG (mixed)
RNA 1: B1 RNA 1
RNA 2: B1 RNA 2 with U54G
B9: target 1 MT 5'PFS CUA 3'PFS UCU (mixed)
RNA 1: B1 RNA 1
RNA 2: B1 RNA 2 with G27C, C28U, C29A, C52U, U53C
B10: target 1 MT 5'PFS UAC 3'PFS CGG (mixed)
RNA 1: B1 RNA 1
RNA 2: B1 RNA 2 with G27U, C28A, U53G, U54G
B11: target 1 MT 5'PFS UCA 3'PFS AAG (mixed)
RNA 1: B1 RNA 1
RNA 2: B1 RNA 2 with G27U, C29A, C52A, U53A, U54G
B12: target 1 MT 5'PFS GGG 3'PFS UCC (mixed)
RNA 1: B1 RNA 1
RNA 2: B1 RNA 2 with C28G, C29G, C52U, U53C, U54C
B13: target 1 MT 5'PFS GUG 3'PFS AGG (mixed)
RNA 1: B1 RNA 1
RNA 2: B1 RNA 2 with C28U, C29G, C52A, U53G, U54G
B14: target 1 MT 5'PFS GUG 3'PFS CGG (mixed)
RNA 1: B1 RNA 1
RNA 2: B1 RNA 2 with C28U, C29G, U53G, U54G
B15: target 1 MT 5'PFS GCA 3'PFS AGA (mixed)
RNA 1: B1 RNA 1
RNA 2: B1 RNA 2 with C29A, C52A, U53G, U54A
B16: target 1 G13A,C22U (mixed)
RNA 1: B1 RNA 1
RNA 2: B1 RNA 2 with C28U, C29A, C30U, G39A, U53C, U54G
B17: target 1 MT 5'PFS GUG 3'PFS CGC (mixed)
RNA 1: B1 RNA 1
RNA 2: B1 RNA 2 with C28U, C29G, U53G, U54C
B18: target 1 MT 5'PFS UGC 3'PFS CUA (mixed)
RNA 1: B1 RNA 1
RNA 2: B1 RNA 2 with G27U, C28G, U54A
B19: target 1 MT 5'PFS GCC 3'PFS CUC (mixed)
RNA 1: B1 RNA 1
RNA 2: B1 RNA 2 with U54C
B20: target 1 MT 5'PFS GGG 3'PFS UCU (mixed)
RNA 1: B1 RNA 1
RNA 2: B1 RNA 2 with C28G, C29G, C52U, U53C
B21: target 1 MT 5'PFS UGG 3'PFS AGU (mixed)
RNA 1: B1 RNA 1
RNA 2: B1 RNA 2 with G27U, C28G, C29G, C52A, U53G
B22: target 1 MT 5'PFS UCA 3'PFS AAA (mixed)
RNA 1: B1 RNA 1
RNA 2: B1 RNA 2 with G27U, C29A, C52A, U53A, U54A
B23: target 1 insC 3' of 20,insG 3' of 18 (mixed)
RNA 1: B1 RNA 1
RNA 2: B7 RNA 2 with U33C, A34U, G35A, A36G, G40A, C41G, U42G, A44U, C45A
B24: target 1 MT 5'PFS GGG 3'PFS UCG (mixed)
RNA 1: B1 RNA 1
RNA 2: B1 RNA 2 with C28G, C29G, C52U, U53C, U54G
B25: target 1 MT 5'PFS GGC 3'PFS CCC (mixed)
RNA 1: B1 RNA 1
RNA 2: B1 RNA 2 with C28G, U53C, U54C
B26: target 1 MT 5'PFS AAC 3'PFS UAC (mixed)
RNA 1: B1 RNA 1
RNA 2: B1 RNA 2 with G27A, C28A, C52U, U53A, U54C
B27: target 1 insC 3' of 17,insC 3' of 10 (mixed)
RNA 1: B1 RNA 1
RNA 2: B7 RNA 2 with A36C, G37A, A38G, G39A, C41G, A44C, C45A
B28: target 1 MT 5'PFS UCA 3'PFS AAC (mixed)
RNA 1: B1 RNA 1
RNA 2: B1 RNA 2 with G27U, C29A, C52A, U53A, U54C
B29: target 1 MT 5'PFS AGU 3'PFS UCC (mixed)
RNA 1: B1 RNA 1
RNA 2: B1 RNA 2 with G27A, C28G, C29U, C52U, U53C, U54C
B30: target 1 MT 5'PFS GUG 3'PFS AGC (mixed)
RNA 1: B1 RNA 1
RNA 2: B1 RNA 2 with C28U, C29G, C52A, U53G, U54C
B31: target 1 MT 5'PFS GCA 3'PFS AGU (mixed)
RNA 1: B1 RNA 1
RNA 2: B1 RNA 2 with C29A, C52A, U53G
B32: target 1 MT 5'PFS GUG 3'PFS AGU (mixed)
RNA 1: B1 RNA 1
RNA 2: B1 RNA 2 with C28U, C29G, C52A, U53G
B33: target 1 MT 5'PFS GGG 3'PFS UCA (mixed)
RNA 1: B1 RNA 1
RNA 2: B1 RNA 2 with C28G, C29G, C52U, U53C, U54A
B34: target 1 MT 5'PFS GAA 3'PFS AUA (mixed)
RNA 1: B1 RNA 1
RNA 2: B1 RNA 2 with C28A, C29A, C52A, U54A
B35: target 1 MT 5'PFS GCA 3'PFS AGG (mixed)
RNA 1: B1 RNA 1
RNA 2: B1 RNA 2 with C29A, C52A, U53G, U54G
B36: target 1 MT 5'PFS UGC 3'PFS CUG (mixed)
RNA 1: B1 RNA 1
RNA 2: B1 RNA 2 with G27U, C28G, U54G
B37: target 1 MT 5'PFS GUG 3'PFS CGU (mixed)
RNA 1: B1 RNA 1
RNA 2: B1 RNA 2 with C28U, C29G, U53G

The series deals with T1, EsCas13d, nuclease-dead. The experiment in a line: crRNA (strand 1, pre-loaded); Mg2+; 40 mM Tris-HCl pH 7.5, 150 mM NaCl, 6 mM MgCl2, 1 mM DTT, 0.1% Tween-20, 0.2 mg/ml BSA; 25 C; 10 min per concentration, then washed. The settings on record: tags: His6-TwinStrep-SUMO cleaved; N-terminal SNAP kept (SNAP-Surface 488); label: 3' end held by stalled T7 RNA polymerase.
As for B1, the affinity, expressed as Kd, was 15.6 ± 5.05 nM.
Consider B2, for which binding was characterised by a dissociation constant (Kd) of 31 ± 8 nM. This Kd is about 2-fold higher than that of the molecule before.
The same measure for B3: 15 ± 5.5 nM; for B4: 22.9 ± 2.2 nM.
The same measure for B5: 13.2 ± 3.15 nM.
Under B6 stands 39.5 ± 12.5 nM; under B7, 21.9 ± 1 nM; under B8, 17 ± 6 nM.
As for B9, the Kd (usually the equilibrium constant for the complex coming apart) worked out at 4.9 ± 0.7 nM. Compared with the last molecule, the Kd is about 3.5-fold lower.
The same measure for B10: 44.5 ± 21 nM.
Under B11 stands approximately 70 nM; under B12, 28 ± 5 nM; under B13, 28.7 ± 1.75 nM.
The same measure for B14: 23.4 ± 1.85 nM; for B15: 22.5 ± 4.15 nM; for B16: 10.7 ± 1.7 nM.
B17 had a Kd of 22.6 ± 1.7 nM.
The same measure for B18: 18 ± 7 nM; for B19: 33 ± 15 nM; for B20: 14.6 ± 2.1 nM.
The same measure for B21: 67 ± 33 nM.
The same measure for B22: 21 ± 9 nM; for B23: 12.9 ± 0.8 nM; for B24: 20.7 ± 3.55 nM.
On to B25, for which the Kd is approximately 25 nM.
The same measure for B26: 31 ± 13 nM.
In the case of B27, the dissociation constant (Kd) is 52 ± 18 nM.
Under B28 stands 18.6 ± 5.7 nM; under B29, 29 ± 11.5 nM; under B30, 9.45 ± 0.75 nM.
In turn, B31 showed an equilibrium dissociation constant (Kd) of 23 ± 5 nM.
Under B32 stands 11.4 ± 0.8 nM.
The same measure for B33: 18.6 ± 3.75 nM.
Under B34 stands 32 ± 7.5 nM; under B35, 43.5 ± 10 nM; under B36, 13.2 ± 2.8 nM.
With B37, the Kd was 6.83 ± 0.425 nM. This Kd lies about 1.9-fold lower than the previous one.
